Data on one molecule can be found in US20090155249A1 (AC IMMUNE S A, published 2009).

This experiment concerns the target Amyloid Beta (antigen of the Amyloid Beta ELISA) (UniProt P05067 672-713, limits assumed). Briefly: Amyloid Beta ELISA, purified antibodies, A405. In general terms: ELISA stands for enzyme-linked immunosorbent assay.

Chain of Amyloid Beta (antigen of the Amyloid Beta ELISA) (P05067 672-713 limits assumed): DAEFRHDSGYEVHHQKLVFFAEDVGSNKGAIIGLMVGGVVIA

B1: chimeric antibody C2 ChVH AF/ChVK (antibody, V domains shown)
VH: EVQLVESGGGLVQPGGSLKLSCAASGFTFSSYGMSWVRQTPDKRLELVASINSNGGSTYYPDSVKGRFTISRDNAKNTLYLQMSSLKSEDTAMYYCASGDYWGQGSTLTVSS
VL: DVVMTQTPLSLPVSLGDQASISCRSSQSLVYSNGDTYLHWYLQKPGQSPKLLIYKVSNRFSGVPDRFSGSGSGTDFTLKISRVEAEDLGVYFCSQSTHVPWTFGGGTKLEIKR
notes: both forms are written under this id; also called C2 VH AF/C2 VK chimeric antibody; chimeric AF
For B1, the “EC50 (read off the curve)” value is about 3 ng/well.
